Test results: patent publication US20160032279 (published 2016)
Read-outs that look alike come from different tables or passages of the source. No end group written: not given here.

Legend:
[1] = target: T1, Streptavidin (Streptomyces avidinii, UniProt P22629); test: FACS
[2] = target: T1, Streptavidin; test: FACS; remark: listed apart in the source

T1 sequence (P22629 37-163): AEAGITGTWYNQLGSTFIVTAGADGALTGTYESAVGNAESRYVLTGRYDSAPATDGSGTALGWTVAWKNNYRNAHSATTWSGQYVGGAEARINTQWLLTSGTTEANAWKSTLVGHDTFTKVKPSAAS

| Binder | Kd [1] [nM] | Kd [2] [nM] |
| --- | --- | --- |
| RLEICQNVCYYLGTL (cysteine pairing not given here; also: phycoerythrin conjugate) [SA-1] | 10 | – |
| TVLICMNICWTGETQ (cysteine pairing not given here; also: phycoerythrin conjugate) [SA-3] | 4 | 4 |
| ICSYVMYTTCFLRVY (cysteine pairing not given here; also: phycoerythrin conjugate) [SA-2] | 8 | – |
